Measured values reported in patent US20090148513A1 (AbbVie / Abbott, published 2009).

Target: rHuTNF (human, UniProt P01375 77-233)
Test: cell-based or functional assay

Sequence of rHuTNF (P01375 77-233 limits assumed): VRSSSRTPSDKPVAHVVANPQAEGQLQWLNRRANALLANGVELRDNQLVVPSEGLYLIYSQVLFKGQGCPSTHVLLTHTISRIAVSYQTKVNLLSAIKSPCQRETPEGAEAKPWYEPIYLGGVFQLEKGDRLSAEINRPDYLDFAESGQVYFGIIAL

B1: MAK195F, F(ab')2 fragment of the murine IgG3 monoclonal anti-hTNFalpha antibody MAK195 (other)
light: DIVMTQSHKFMSTTVGDRVSITCKASQAVSSAVAWYQQKPGQSPKLLIYWASTRHTGVPDRFTGSGSVTDFTLTIHNLQAEDLALYYCQQHYSTPFTFGSGTKLEIKRADAAPTVSIFPPSSEQLTSGGASVVCFLNNFYPKDINVKWKIDGSERQNGVLNSWTDQDSKDSTYSMSSTLTLTKDEYERHNSYTCEATHKTSTSPIVKSFNRNEC
heavy: QVQLKESGPGLVAPSQSLSITCTVSGFSLTDYGVNWVRQPPGKGLEWLGMIWGDGSTDYDSTLKSRLSISKDNSKSQIFLKMNSLQTDDTARYYCAREWHHGPVAYWGQGTLVTVSAATTTAPSVYPLVPGCSDTSGSSVTLGCLVKGYFPEPVTVKWNYGALSSGVRTVSSVLQSGFYSLSSLVTVPSSTWPSQTVICNVAHPASKTELIKRIEPRIPKPSTPPGSSCPPGNILGGPSVF
modifications: N-terminal glutamine completely converted into pyroglutamic acid; partial O-glycosylation at SerH222 (about 70% of Fd' fragments non-glycosylated); deamidation of a single asparagine residue (AsnL157)
relative biological activity (neutralisation of rHuTNF cytotoxicity on mouse L-929 cells; mean IC50 of reference standard / IC50 of sample x 100%): 102%
